# Experimental data as given in patent US20230095558A1 (SPARX BIOTECH JIANGSU, published 2023).
# No end group written: not given here.
# B1: K5-20-peptide (targeting TIM3) (peptide)
# peptide: WQQNNPHLWDVFLGVPRTTE
# notes: Synthetic 20-mer from phage display screening
# B2: K2-20-peptide (targeting TIM3) (peptide)
# peptide: FTYAHPVSHRWESSVHVDQW
# notes: as for B1
# B3: P1303-12-peptide (targeting TIM3) (peptide)
# peptide: ALWPSSSMSSTI
# notes: Synthetic 12-mer from phage display screening
# B4: K10-20-peptide (targeting TIM3) (peptide)
# peptide: SPFYYSGHQWVPHPRQAASY
# notes: as for B1
# B5: P1301-12-peptide (targeting TIM3) (peptide)
# peptide: HDAFPRPHLFRN
# modifications: not fully specified
# B6: P29-12-peptide (targeting TIM3) (peptide)
# peptide: ADFRVMADMSMY
# notes: as for B3
# B7: P24-12-peptide (targeting TIM3) (peptide)
# peptide: GSWNTFRAQPTI
# notes: as for B3
# B8: K3-20-peptide (targeting TIM3) (peptide)
# peptide: SQEVFAWTFSPRWTTAPKAL
# notes: as for B1
# B9: P1307-12-peptide (targeting TIM3) (peptide)
# peptide: SHDTRSPFTWGR
# notes: as for B3
# B10: P20-12-peptide (targeting TIM3) (peptide)
# peptide: LTPHKHHKHLHA
# notes: as for B3
# Biological target: T1, TIM3 protein (cat #CHI-MF-210T3-0050, Chimerigen)
# T1 construct: Bought recombinant protein used in SPR; also called TLM3 protein
# Assay: SPR (OpenSPR), TIM3 protein immobilised on chip, peptide in flow
# Experimental: SPR assay: Affinity identification between the TIM3-targeting binding peptides and TIM3 was performed by immobilizing TIM3 protein (50 μg/mL) on the surface of a nanogold sensor chip upon activation of EDC/NHS. […] The competitive binding ability of the TIM3-targeting binding peptides to the ligand was identified by immobilizing the Galectin-9 protein (25 μg/mL) on a sensor chip at a detection concentration of 100 μg/mL for the TIM3-targeting binding peptides, and at a concentration of the mixed sample of 100 μg/mL TIM3-targeting binding peptides and 10 μg/mL TIM3 protein. The detection sample was loaded at a flow rate of 20 μL/min for about 7 min according to the instrument instructions. The KD, ka and kd values were calculated and analyzed by Trace Drawer Evaluation (version 2.0) software.
Binder,Kd,koff,kon
B1,18 µM,0.016 s⁻¹,–
B2,227 µM,0.0103 s⁻¹,–
B3,26.3 µM,0.00308 s⁻¹,117 M⁻¹ s⁻¹
B4,26.1 µM,0.023 s⁻¹,–
B5,80.1 µM,0.00428 s⁻¹,–
B6,200 µM,0.00747 s⁻¹,–
B7,0.095 µM,1.69e-05 s⁻¹,–
B8,20.1 µM,0.0132 s⁻¹,–
B9,117 µM,0.00789 s⁻¹,–
B10,24.3 µM,0.00625 s⁻¹,–
